# Measurements from patent US20100143268A1, “Formulations for Delivery Via Pressurised Metered Dose Inhalers Comprising an Essential Oil as Suspension Stabiliser” (priority 2006, published 2010).
# Columns and labels:
# [1] = Tong et al, Pharm. Res. (2001) 18, 852-858; cited from earlier work
# [2] = Integrity of insulin by GPC, HPLC, circular dichroism and fluorescence spectroscopy; type: physicochemical
# Procedure: The formulations were also assessed for the integrity of insulin using gel permeation chromatography (GPC), high performance liquid chromatography (HPLC), circular dichroism and fluorescence spectroscopy.
Molecule,aqueous solubility [1],chemical degradation of insulin during the formulation process ([2]; GPC and HPLC chromatograms compared to standard insulin),"secondary structures of insulin after processing ([2]; far-UV circular dichroism, from the nanoparticles after delivery from the pMDI vs unprocessed control)","tertiary structures of insulin after processing ([2]; near-UV CD, peak around 275 nm, confirmed by fluorescence spectra)"
"OCc1cc(C(O)CNCCCCCCOCCCCc2ccccc2)ccc1O (stereo not shown) [SX, Salmeterol Xinafoate]",66 to 81 µg/mL,,,
insulin,,not chemically degraded,retained,retention
